{"source": "patent US20060067886A1", "about": "“Gastrin receptor-avid peptide conjugates” (priority 1997, published 2006)", "key": {"[1]": {"assay": "in vivo", "details": "SCID, mouse, in vivo, iv, 4 uCi, total radioactivity, Avg % ID, Muscle", "experimental": "In vivo pharmacokinetic studies in human tumor bearing SCID mice. […] The xenograft models were produced by bilateral flank inoculation of 5×10^6 cells (PC-3 or MDA-MB-231 cells) per site. Four to six weeks post inoculation, palpable tumors were observed. At this point, the mice were injected with 4 μCi of the complex in […] of isotonic saline via the tail vein. The mice were euthanized and tissues and organs were excised from the animals at selected times post-injection (p.i.), including 15 minutes, 30 minutes, 1 hour, 4 hours, 24 hours, 48 hours, and 72 hours p.i. Subsequently, the tissues and organs were weighed and counted in a NaI well counter and the percent injected dose (% ID) and % ID/g of each organ or tissue calculated.\nThe mice were injected with 4 μCi of the complex in 100 μL of isotonic saline via the tail vein. The mice were euthanized by cervical dislocation. Tissues and organs were excised from the animals following at 1 hour, 4 hour, and 24 hours post-injection (p.i.). Subsequently, the tissues and organs were weighed and counted in a NaI well counter and the percent injected dose (% ID) and % ID/g of each organ or tissue calculated."}, "[2]": {"tested_on": "PC-3 human tumor xenografts", "assay": "Single dose radiotherapy in PC-3 tumor bearing SCID mice", "assay_type": "in vivo", "details": "up to 20 mCi/kg single dose", "excerpt": "In vivo pre-clinical evaluation of single dose radiotherapy in human tumor bearing SCID mice. […] The xenograft model was produced by bilateral flank inoculation of 5×10^6 PC-3 cells per site. […] Baseline weights, hematology profiles, and tumor measurements were obtained immediately prior to therapy administration. Four groups of animals were utilized; a saline placebo, a 5 mCi/kg single dose, a 10 mCi/kg single dose, and a 20 mCi/kg single dose. Tumor measurements and weights were obtained twice weekly throughout the 14 weeks post injection."}}, "data": [{"smiles": "CSCC[C@H](NC(=O)[C@H](CC(C)C)NC(=O)[C@H](Cc1cnc[nH]1)NC(=O)CNC(=O)[C@@H](NC(=O)[C@H](C)NC(=O)[C@H](Cc1c[nH]c2ccccc12)NC(=O)[C@H](CCC(N)=O)NC(=O)CCCCCCCNC(=O)CN1CCN(CC(=O)O)CCN(CC(=O)O)CCN(CC(=O)O)CC1)C(C)C)C(N)=O", "note": "[90Y-DOTA-8-Aoc-BBN[7-14]NH2, metal not drawn]", "values": [{"measurement": "tissue uptake dose at 4 h", "setting": "[1]; 4 hrs", "value": "0.01 ± 0.01", "unit": "%ID"}, {"measurement": "tissue uptake dose at 48 h", "setting": "[1]; 48 hrs", "value": "0.01 ± 0.02", "unit": "%ID"}, {"measurement": "tissue uptake dose at 72 h", "setting": "[1]; 72 hrs", "value": "0.01 ± 0.02", "unit": "%ID"}, {"measurement": "tolerability of radiation doses", "setting": "[2]", "value": "well tolerated"}]}]}
